Data set [1] is described as follows: Relative enzymatic activity of GLD (DCIP/1-m-PMS, plate reader, yeast culture supernatant) with 1,10-phenanthroline present. The format is biochemical. As to conditions: site-specific mutants, inhibitor final concentration 1 mM. The gist of the method:
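Inhibitor at 1 mM final substitutes for the methanol in the reagent, and the sample rate is expressed as % of the inhibitor-free blank. Rates come from ΔA600/min of DCIP with glucose and 1-m-PMS at pH 7.0, using supernatants of YPD-grown yeast clones (24 h, 30° C.).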

Data set [2] can be described thus: Relative enzymatic activity of GLD (DCIP/1-m-PMS, plate reader, yeast culture supernatant) with proflavin hydrochloride present. Format: biochemical. The settings on record: site-specific mutants, inhibitor final concentration 1 mM. The gist of the method:
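Culture supernatant diluted and mixed with reagent of phosphate buffer pH 7.0, 1.0 M D-glucose, 3 mM DCIP, 3 mM 1-m-PMS and methanol (0.1:1:0.14:0.2:0.06). DCIP absorbance decrease at 600 nm followed; proflavin hydrochloride in methanol replaced methanol at 1 mM final. Activity expressed as % of inhibitor-free blank.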

B1: Y424K: modified GLD: SEQ ID NO: 1 with substitution Y424K (protein, listed as Aspergillus terreus)
chain: MLGKLSFLSALSLAVAAPLSNSTSAKYDYIVIGGGTSGLAVANRLSEDPNVNVLILEAGGSVWNNPNVTNVDGYGLAFGSDIDWQYQSVNQPYGGNLSQVLRAGKALGGTSTINGMAYTRAEDVQIDAWETIGNTGWTWKNLFPYYRKSENFTVPTKSQTSLGASYEAGAHGHEGPLDVAFTQIESNNLTTYLNRTFQGMGLPWTEDVNGGKMRGFNLYPSTVNLEEYVREDAARAYYWPYKSRPNLHVLLNTFANRIVWDGEAHDGHITASGVEITSRNGTVRVINAEKEVIVSAGALKSPAILELSGIGNPSVLDKHNIPVKVNLPTVGENLQDQVNSHMDASGNTSISGTKAVSYPDVYDVFGDEAESVAKQIRANLKQYAADTAKANGNIMKAADLERLFEVQYDLIFKGRVPIAEVLNKPGSATSVFAEFWALLPFARGSVHIGSSNPAEFPVINPNYFMLDWDAKSYVAVAKYIRRSFESYPLSSIVKESTPGYDVIPRNASEQSWKEWVFDKNYRSNFHPVGTAAMMPREIGGVVDERLNVYGTTNVRVVDASVLPFQVCGHLVSTLYAVAERAADLIKADAGRR
modifications: SIGNAL (1)..(19)
With B1, the “Relative Activity [%] 1,10-Phenanthroline” value in data set [1] came to 71.9%. Besides, the “Relative Activity [%] Proflavin hydrochloride” value in data set [2] was 52.5%.

B2: Y424V: modified GLD: SEQ ID NO: 1 with substitution Y424V (protein, listed as Aspergillus terreus)
chain: MLGKLSFLSALSLAVAAPLSNSTSAKYDYIVIGGGTSGLAVANRLSEDPNVNVLILEAGGSVWNNPNVTNVDGYGLAFGSDIDWQYQSVNQPYGGNLSQVLRAGKALGGTSTINGMAYTRAEDVQIDAWETIGNTGWTWKNLFPYYRKSENFTVPTKSQTSLGASYEAGAHGHEGPLDVAFTQIESNNLTTYLNRTFQGMGLPWTEDVNGGKMRGFNLYPSTVNLEEYVREDAARAYYWPYKSRPNLHVLLNTFANRIVWDGEAHDGHITASGVEITSRNGTVRVINAEKEVIVSAGALKSPAILELSGIGNPSVLDKHNIPVKVNLPTVGENLQDQVNSHMDASGNTSISGTKAVSYPDVYDVFGDEAESVAKQIRANLKQYAADTAKANGNIMKAADLERLFEVQYDLIFKGRVPIAEVLNVPGSATSVFAEFWALLPFARGSVHIGSSNPAEFPVINPNYFMLDWDAKSYVAVAKYIRRSFESYPLSSIVKESTPGYDVIPRNASEQSWKEWVFDKNYRSNFHPVGTAAMMPREIGGVVDERLNVYGTTNVRVVDASVLPFQVCGHLVSTLYAVAERAADLIKADAGRR
modifications: SIGNAL (1)..(19)
In the case of B2, the “Relative Activity [%] 1,10-Phenanthroline” value in data set [1] was 49.1%. Moreover, the “Relative Activity [%] Proflavin hydrochloride” value in data set [2] was 46.7%.

B3: Y424S: modified GLD: SEQ ID NO: 1 with substitution Y424S (protein, listed as Aspergillus terreus)
chain: MLGKLSFLSALSLAVAAPLSNSTSAKYDYIVIGGGTSGLAVANRLSEDPNVNVLILEAGGSVWNNPNVTNVDGYGLAFGSDIDWQYQSVNQPYGGNLSQVLRAGKALGGTSTINGMAYTRAEDVQIDAWETIGNTGWTWKNLFPYYRKSENFTVPTKSQTSLGASYEAGAHGHEGPLDVAFTQIESNNLTTYLNRTFQGMGLPWTEDVNGGKMRGFNLYPSTVNLEEYVREDAARAYYWPYKSRPNLHVLLNTFANRIVWDGEAHDGHITASGVEITSRNGTVRVINAEKEVIVSAGALKSPAILELSGIGNPSVLDKHNIPVKVNLPTVGENLQDQVNSHMDASGNTSISGTKAVSYPDVYDVFGDEAESVAKQIRANLKQYAADTAKANGNIMKAADLERLFEVQYDLIFKGRVPIAEVLNSPGSATSVFAEFWALLPFARGSVHIGSSNPAEFPVINPNYFMLDWDAKSYVAVAKYIRRSFESYPLSSIVKESTPGYDVIPRNASEQSWKEWVFDKNYRSNFHPVGTAAMMPREIGGVVDERLNVYGTTNVRVVDASVLPFQVCGHLVSTLYAVAERAADLIKADAGRR
modifications: SIGNAL (1)..(19)
Take B3: the “Relative Activity [%] 1,10-Phenanthroline” value in data set [1] is on record as 81.4%. In addition, the “Relative Activity [%] Proflavin hydrochloride” value in data set [2] turned out to be 61.0%.

B4: Y424T: modified GLD: SEQ ID NO: 1 with substitution Y424T (protein, listed as Aspergillus terreus)
chain: MLGKLSFLSALSLAVAAPLSNSTSAKYDYIVIGGGTSGLAVANRLSEDPNVNVLILEAGGSVWNNPNVTNVDGYGLAFGSDIDWQYQSVNQPYGGNLSQVLRAGKALGGTSTINGMAYTRAEDVQIDAWETIGNTGWTWKNLFPYYRKSENFTVPTKSQTSLGASYEAGAHGHEGPLDVAFTQIESNNLTTYLNRTFQGMGLPWTEDVNGGKMRGFNLYPSTVNLEEYVREDAARAYYWPYKSRPNLHVLLNTFANRIVWDGEAHDGHITASGVEITSRNGTVRVINAEKEVIVSAGALKSPAILELSGIGNPSVLDKHNIPVKVNLPTVGENLQDQVNSHMDASGNTSISGTKAVSYPDVYDVFGDEAESVAKQIRANLKQYAADTAKANGNIMKAADLERLFEVQYDLIFKGRVPIAEVLNTPGSATSVFAEFWALLPFARGSVHIGSSNPAEFPVINPNYFMLDWDAKSYVAVAKYIRRSFESYPLSSIVKESTPGYDVIPRNASEQSWKEWVFDKNYRSNFHPVGTAAMMPREIGGVVDERLNVYGTTNVRVVDASVLPFQVCGHLVSTLYAVAERAADLIKADAGRR
modifications: SIGNAL (1)..(19)
Take B4: in data set [1], the “Relative Activity [%] 1,10-Phenanthroline” value stood at 71.2%. Further, the “Relative Activity [%] Proflavin hydrochloride” value in data set [2] amounted to 43.4%.

B5: G352A: modified GLD: SEQ ID NO: 1 with substitution G352A (protein, listed as Aspergillus terreus)
chain: MLGKLSFLSALSLAVAAPLSNSTSAKYDYIVIGGGTSGLAVANRLSEDPNVNVLILEAGGSVWNNPNVTNVDGYGLAFGSDIDWQYQSVNQPYGGNLSQVLRAGKALGGTSTINGMAYTRAEDVQIDAWETIGNTGWTWKNLFPYYRKSENFTVPTKSQTSLGASYEAGAHGHEGPLDVAFTQIESNNLTTYLNRTFQGMGLPWTEDVNGGKMRGFNLYPSTVNLEEYVREDAARAYYWPYKSRPNLHVLLNTFANRIVWDGEAHDGHITASGVEITSRNGTVRVINAEKEVIVSAGALKSPAILELSGIGNPSVLDKHNIPVKVNLPTVGENLQDQVNSHMDASGNTSISATKAVSYPDVYDVFGDEAESVAKQIRANLKQYAADTAKANGNIMKAADLERLFEVQYDLIFKGRVPIAEVLNYPGSATSVFAEFWALLPFARGSVHIGSSNPAEFPVINPNYFMLDWDAKSYVAVAKYIRRSFESYPLSSIVKESTPGYDVIPRNASEQSWKEWVFDKNYRSNFHPVGTAAMMPREIGGVVDERLNVYGTTNVRVVDASVLPFQVCGHLVSTLYAVAERAADLIKADAGRR
modifications: SIGNAL (1)..(19)
B5: the “Relative Activity [%] 1,10-Phenanthroline” value in data set [1] amounted to 76.1%. The “Relative Activity [%] Proflavin hydrochloride” value in data set [2] amounted to 47.9%.

B6: Y424R: modified GLD: SEQ ID NO: 1 with substitution Y424R (protein, listed as Aspergillus terreus)
chain: MLGKLSFLSALSLAVAAPLSNSTSAKYDYIVIGGGTSGLAVANRLSEDPNVNVLILEAGGSVWNNPNVTNVDGYGLAFGSDIDWQYQSVNQPYGGNLSQVLRAGKALGGTSTINGMAYTRAEDVQIDAWETIGNTGWTWKNLFPYYRKSENFTVPTKSQTSLGASYEAGAHGHEGPLDVAFTQIESNNLTTYLNRTFQGMGLPWTEDVNGGKMRGFNLYPSTVNLEEYVREDAARAYYWPYKSRPNLHVLLNTFANRIVWDGEAHDGHITASGVEITSRNGTVRVINAEKEVIVSAGALKSPAILELSGIGNPSVLDKHNIPVKVNLPTVGENLQDQVNSHMDASGNTSISGTKAVSYPDVYDVFGDEAESVAKQIRANLKQYAADTAKANGNIMKAADLERLFEVQYDLIFKGRVPIAEVLNRPGSATSVFAEFWALLPFARGSVHIGSSNPAEFPVINPNYFMLDWDAKSYVAVAKYIRRSFESYPLSSIVKESTPGYDVIPRNASEQSWKEWVFDKNYRSNFHPVGTAAMMPREIGGVVDERLNVYGTTNVRVVDASVLPFQVCGHLVSTLYAVAERAADLIKADAGRR
modifications: SIGNAL (1)..(19)
Turning to B6, in data set [1], the “Relative Activity [%] 1,10-Phenanthroline” value turned out to be 70.3%. In addition, in data set [2], the “Relative Activity [%] Proflavin hydrochloride” value was determined as 55.6%.

B7: Y424Q: modified GLD: SEQ ID NO: 1 with substitution Y424Q (protein, listed as Aspergillus terreus)
chain: MLGKLSFLSALSLAVAAPLSNSTSAKYDYIVIGGGTSGLAVANRLSEDPNVNVLILEAGGSVWNNPNVTNVDGYGLAFGSDIDWQYQSVNQPYGGNLSQVLRAGKALGGTSTINGMAYTRAEDVQIDAWETIGNTGWTWKNLFPYYRKSENFTVPTKSQTSLGASYEAGAHGHEGPLDVAFTQIESNNLTTYLNRTFQGMGLPWTEDVNGGKMRGFNLYPSTVNLEEYVREDAARAYYWPYKSRPNLHVLLNTFANRIVWDGEAHDGHITASGVEITSRNGTVRVINAEKEVIVSAGALKSPAILELSGIGNPSVLDKHNIPVKVNLPTVGENLQDQVNSHMDASGNTSISGTKAVSYPDVYDVFGDEAESVAKQIRANLKQYAADTAKANGNIMKAADLERLFEVQYDLIFKGRVPIAEVLNQPGSATSVFAEFWALLPFARGSVHIGSSNPAEFPVINPNYFMLDWDAKSYVAVAKYIRRSFESYPLSSIVKESTPGYDVIPRNASEQSWKEWVFDKNYRSNFHPVGTAAMMPREIGGVVDERLNVYGTTNVRVVDASVLPFQVCGHLVSTLYAVAERAADLIKADAGRR
modifications: SIGNAL (1)..(19)
As to B7, the “Relative Activity [%] 1,10-Phenanthroline” value in data set [1] is 80.2%. Further, the “Relative Activity [%] Proflavin hydrochloride” value in data set [2] turned out to be 50.2%.

B8: Y424N: modified GLD: SEQ ID NO: 1 with substitution Y424N (protein, listed as Aspergillus terreus)
chain: MLGKLSFLSALSLAVAAPLSNSTSAKYDYIVIGGGTSGLAVANRLSEDPNVNVLILEAGGSVWNNPNVTNVDGYGLAFGSDIDWQYQSVNQPYGGNLSQVLRAGKALGGTSTINGMAYTRAEDVQIDAWETIGNTGWTWKNLFPYYRKSENFTVPTKSQTSLGASYEAGAHGHEGPLDVAFTQIESNNLTTYLNRTFQGMGLPWTEDVNGGKMRGFNLYPSTVNLEEYVREDAARAYYWPYKSRPNLHVLLNTFANRIVWDGEAHDGHITASGVEITSRNGTVRVINAEKEVIVSAGALKSPAILELSGIGNPSVLDKHNIPVKVNLPTVGENLQDQVNSHMDASGNTSISGTKAVSYPDVYDVFGDEAESVAKQIRANLKQYAADTAKANGNIMKAADLERLFEVQYDLIFKGRVPIAEVLNNPGSATSVFAEFWALLPFARGSVHIGSSNPAEFPVINPNYFMLDWDAKSYVAVAKYIRRSFESYPLSSIVKESTPGYDVIPRNASEQSWKEWVFDKNYRSNFHPVGTAAMMPREIGGVVDERLNVYGTTNVRVVDASVLPFQVCGHLVSTLYAVAERAADLIKADAGRR
modifications: SIGNAL (1)..(19)
Turning to B8, in data set [1], the “Relative Activity [%] 1,10-Phenanthroline” value worked out at 89.9%. The “Relative Activity [%] Proflavin hydrochloride” value in data set [2] is on record as 55.6%.

Values taken from patent publication US8969060B2, “Modified glucose dehydrogenase” (Ikeda Food Research Co., Ltd., priority 2011, dated 2015).
